Measurements taken from patent US20010016194A1, “COMPOUNDS THAT INHIBIT THE BINDING OF RAF-1 OR 14-3-3 PROTEINS TO THE BETA CHAIN OF IL-2 RECEPTOR, AND PHARMACEUTICAL COMPOSITIONS CONTAINING SAME” (priority 1999, published 2001).

Target: (His)6-Raf-1 protein (UniProt P04049)
Test: totally cell-free pull-down, anti-Raf-1 immunoblot, densitometry

% binding to Raf-1 proteins (of the positive control): 0 to 10%
B1: FLAG-HMK-IL-2Rβ chain containing only the proline rich C-terminal (CT+) (receptor, not shown: small tags and cut ends)
chain: QPLSGEDDAYCTFPSRDDLLLFSPSLLGGPSPPSTAPGGSGAGEERMPPSLQERVPRDWDPQPLGPPTPGVPDLVDFQPPPELVLREAGEEVPDAGPREGVSFPWSRPPGQGEFRALNARLPLNTDAYLSLQELQGQDPTHLV
